Data from patent US20150259430A1 (MAB DISCOVERY, published 2015).
Residue numbers refer to the chain shown, from its start.

B1: Antibody 21 (antibody, V domains shown)
VH: QEHLEESGGGLVKPPGSLTLTCTASGFSFSSTYYICWVRQAPGKGLEWIGCIYAGSGTTYYASWAKGRFTISKTSSTTVTLQMASLTAADTATYFCARSSDSWTYGMDLWGPGTLVTVSS
VL: DIVMTQTPASVSEPVGGTVTIKCQASQSISSYLAWYQQKPGQPPKRLIYKASTLASGVPSRFKGSGSGTDFTLTISDLECADAATYYCQCTYGNTGSNFFYGFGGGTEVVVK
notes: rabbit IgG in B-cell supernatant
B2: Antibody 32 (antibody, V domains shown)
VH: QSVEESGGRLVTPGTPLTLTCTVSGFSLSSYDMSWVRQAPGKGLEWIGFIDGDSNTYDATWAKGRFTISKTSTTVDLKITSPTTEDTATYFCTRGFNLWGQGTLVTVSS
VL: DVVMTQTPASVSEPVGGTVTIKCQASQSISSYLAWYQQKPGQPPKLLIYKASTLASGVSSRFKGSGSGTEFTLTISDLECADAATYYCQCSAGGRSGIGGFGGGTEVVVK
notes: as for B1
B3: Antibody 34 (antibody, V domains shown)
VH: QEQLVESGGGLVQPEGSLTLTCKASGFSFSSGYYMCWVRQAPGKGLEWIACIYADSSESTYYASWAKGRFTISKTSSTTVTLQVTSLTAADTATYFCARWGTVAGYSTFNLWGPGTLVTVSS
VL: DVVMTQTPASVSEPVGGTVTIKCQASQSISTALAWYQQKPGQPPKLLIYFTSTLASGVSSRFKGSGSGAEFTLTISDLECADAATYYCQGYYYVTNFPFGGGTEVVVK
notes: as for B1
B4: Antibody 20 (antibody, V domains shown)
VH: QSLEESGGGLVQPEGSLTLTCTASGLDASSNCWVCWVRQAPGKGLEWIACIYAIGSGVTYYASWVNGRFSISKTSSTTVTLQMTSLTVADTATYLCARVLNGVGYIDLWGPGTLVTVSS
VL: DIVMTQTPSSVEAAVGGTVTIKCQASQSVYNNNWLAWYQQIPGQPPKLLIYESSTLASGVPSRFKGSGSGTQFTLTISDVQCDDAAMYYCQTYYYSSSRTYAFGGGTEVVVK
notes: as for B1
B5: Antibody 9 (antibody, V domains shown)
VH: QEQLEESGEGLVKPGTPLTLTCTASGFSLSSGDMSWVRQAPGKGLEWIGTIGVDGSTDYANWAEGRFTISRTSTTVDLKMTSPTTEDTATYFCARGLFDDYTFNLWGQGTLVTVSS
VL: AYDMTQTPASVEVAVGGTVTIKCQASQNIYTYLSWYQQKPGQPPKLLIYKTSTLASGVPSRFSGSGSGTEYTLTVSGVQCDDAATYYCQQGYTTSSNVATPFGGGTEVVVK
notes: as for B1
B6: Antibody 15 (antibody, V domains shown)
VH: QSVEESGGRLVTPGTPLTLTCTVSGFSLNSHAMSWVRQAPGKGLEWIGIISSSGSAWYATWVKGRFTISKTSTTVDLKMTSLTTEDTATYFCARDSAMVPSNFNLWGQGTLVTVSS
VL: AIEMTQSPPSLSASVGETVRIRCLASEFLFNAVSWYQQKPGKPPTLLISGASNLESGVPPRFSGSGSGTDYTLTIGGVQAEDVATYYCLGDFSGGADLTFGAGTKVEIK
notes: as for B1
B7: Antibody 18 (antibody, V domains shown)
VH: QSVEESGGRLVTPGTPLTLTCTVSGFSLSTYWMSWVRQAPGKGLEYIGFINTGGNAYYASWAKGRFTISKTSTSVDLKITSPTTEDTATYFCAGAYVGDVGDGYALTLWGQGTLVTVSS
VL: DVVMTQTPASVSEPVGGTVTIKCQASQSIGNKLAWYQQVPGQPPKLLIYSASPLASGVSSRFKGSRSGTEYTLTISDLECADAATYYCQCTYYGSSGNAFGGGTEVVVK
notes: as for B1
B8: Antibody 74 (antibody, V domains shown)
VH: QSVEESGGRLVTPGTPLTLTCTVSGFSLSSGYMNWVRQAPGKGLEWIGRIHTLSGSIWYASWVKGRFTISKTSTTVDLKMTSLTTKDTATYFCARGNAGGSIEYGMDLWGPGTLVTVSA
VL: AYDMTQTPASVEAAVGGTVTIKCQASESITNYLNWYQQKPGQPPKLLIYSASTLASGVPSRFKGSGSGTQFTLTISGVECADAGTYYCQQGYSLINVGDIFGGGTEVVVR
notes: as for B1
B9: Antibody 1 (antibody, V domains shown)
VH: QSLEESGGRLVTPGTPLTLTCTASGFSLSSYAMIWVRQAPGEGLEYIGIIITGGSAYYANWAKGRFTISRTSTTVDLKMTSLTTEDTATYFCARGYSGSSGDLWGQGTLVTVSS
VL: DVVMTQTPASVSEPVGGTVTIKCQASQSISSWLSWYQQKPGQPPKLLIYGASNLASGVSSRFKGSRSGTEYTLTISDLECADAATYYCQCTDYTSKYVGAFGGGTEVLVR
notes: as for B1
B10: Antibody 78 (antibody, V domains shown)
VH: QSVEESGGRLVTPGTPLTLTCTVSGIDLSSYWMIWVRQAPGEGLEYIGFISNGGGAYYANWTKGRFTISRTSTTVDLKMTSLTTEDTATYFCARAYTTVTIGGFDLWGPGTLVTVSS
VL: AYDMTQTPASVEVAVGGTVTINCQASQNIYNGLAWYQQKPGQPPKLLIYLASTLASGVPSRFKGSGSGTEFTLTISDLECADAATYYCQQGFSVNNVGNVFGGGTEMVVK
notes: as for B1
B11: Antibody 28 (antibody, V domains shown)
VH: QEQLEESGGDLVKPGASLTLTCKVSGFSLTSGYYMCWVRQAPGKGLEWLACIYTGSSGRTYYASWAKGRFTISKTSSTTVTLQMTSLTAADTATFFCARELYLSSVLWGPGTLVTVSS
VL: DVVMTQTPASVSEPVGGTVTIKCQASQSISSSYLSWYQQKPGQPPKLLIYRASTLESGVPSRFKGSGSGTEFTLTISDLECADAATYYCQCTDYAGSYVGGAFGGGTEVVVK
notes: as for B1
B12: Antibody 6 (antibody, V domains shown)
VH: QSVEESGGRLVTPGTPLTLTCTVSGFSLSSYTMGWVRQAPGKGLEYIGIINTGGYTYYASWAKGRFTISRTSTTVDLSMTSLTTEDTATYFCARVYPGSSCDLWGQGTLVTVSS
VL: B11 VL
notes: as for B1
B13: Antibody 52 (antibody, V domains shown)
VH: QSVEESGGRLVTPGTALTLTCTVSGFSLSSGDMSWVRQAPGKGLEWIGYIWSGVSTYYANWAKGRFTISKTSSTTVDLKMTSLTIEDTATYFCARVDFYSYVYSLWGPGTLVTVSS
VL: ALVMTQTPASVEAAVGGTVTIKCQASQSISSCLAWYQQKPGQPPKLLIYSASTLASGVPSRFKGSGSGTEYTLTISGVECADAATYYCQQHYTSNNIDNAFGGGTEVVVK
notes: as for B1
B14: Antibody 56 (antibody, V domains shown)
VH: QSLEESGGRLVTPGTPLTLTCTASGFSLSSYDLSWVRQAPGKGLEWIAYIWSGDKTYYANWAKGRFTISKTSSTTVDLKMTSLTTEDTATYFCATVNIYSYVYSLWGPGTLVTVSS
VL: B13 VL with L2Y, V3D, A13V, S31T, C32A, P40S, S50L, T93S, I97V
notes: as for B1
B15: Antibody 53 (antibody, V domains shown)
VH: QSLEESGGRLVTPGGSLTLTCTVSGSDISTYDASWVRQAPGKGLEWIGYIWSGTKTYYASWAKGRFTISKTSSTTVDLKMTSLTTEDTATYFCATVNTYTYVYSLWGPGTLVTVSS
VL: B13 VL with L2Y, V3D, A13V, C32S, P40S, S50L, S94A, N95L, I97V
notes: as for B1
B16: Antibody 55 (antibody, V domains shown)
VH: B15 VH with T30S, A33M, K55T, T56I, A62P, T95A, V96I, T98I
VL: AYDMTQTPASVEAAVGGTVTIKCQASESIYSSLAWYQQKSGQPPKLLIYLASTLASGVPSRFKGSGSGTDYTLTISGVECADAATYYCQQHYSGSNVDNAFGGGTEVVVK
notes: as for B1
B17: Antibody 24 (antibody, V domains shown)
VH: QSVEESGGRLVTPGTPLTLTCTVSGFSLSSNAISWVRQAPGKGLEWIGFINIYGSTYYASWAKGRFTISRTSTTVDLKMTSLTTEDTATYFCARDRTGDSPTRLDLWGQGTLVTVSS
VL: DVVMTQTPASVEAAVGGTVTIKCQASQSISSYLSWYQQKPGQPPKLLIYDASTLASGVPSRFKGSGSGTQFTLTISDLECADAATYYCQCTYGYGASSAYGNAFGGGTEMVVK
notes: as for B1
B18: Antibody 79 (antibody, V domains shown)
VH: QSVEESGGRLVTPGTPLTLTCTVSGFSLSSNAMSWVRQAPGKGLEWIGIINIYGSTNYASWAKGRFTISKTSSTTVDLKITSPTTEDTATYFCARDYGGVSATRLDLWGQGTLVTVSS
VL: B17 VL with S30G, T53N, A55E, S56D, Q70E, F71Y, A84V, A96I, A99S, M110V
notes: as for B1
B19: Antibody 72 (antibody, V domains shown)
VH: QSLEESGGRLVTPGTLLTLTCTASGIDLSGHAMAWVRQAPGKGLEWIGIIYDNGITNYPTWAKGRFTISKTSTTVELKFTSPTTEDTATYFCARDTGNGALRLTLWGPGTLVTVSS
VL: DIVMTQTPSPVSAAVGGTVTIKCQASQSIGSWLSWYQQKPGQRPKLLIYGASTLESGVPSRFKGSGSGTEFTLTISDLECADAATYYCHCTYGSVSGNAFGGGTEVVVK
notes: as for B1
B20: Antibody 45 (antibody, V domains shown)
VH: QSVEESGGRLVTPGTPLTLTCTVSGFSLSSYAMTWVRQAPGKGLEWIGIIDHSRATYYANWAKGRFTISKTSSTTVDLKVTSLTTEDTATYFCARFFNPGGSGYLRLWGQGTLVTVSS
VL: DVVMTQTPASVSEPVGGTVTIKCQASQIISNWLAWYQQKPGQPPKLLIYGASILASGVPSRFKASRSGTDYTLTIGDLECADAATYYCQCPDYSDTSLGSFGGGTEVVVR
notes: as for B1
B21: Antibody 88 (antibody, V domains shown)
VH: QSVEESGGRLVTPGTPLTLTCTVSGFPLSSYVMSWVRQAPGTGLEYIGIVGIGGSAYYASWAKGRFTISRTSTTVDLKMTSLTPEDTATYFCARGAGGNFYSPLDLWGQGTLVTVSS
VL: DIVMTQTASPLSGAVGGTVTIKCQASQSISNELAWYQQKPGQRPKLLIYLASTLASGVPSRFKGSGSGTDFTLTISDLECADAATYYCQSYSDTSSISYGYGFGGGTEVVVK
notes: as for B1

How the values were obtained:
[1] = target: T1, recombinant Fc chimeric conjugate of human HER3 (human, UniProt P21860 20-643); experiment: ELISA, coated antigen
T1 construct: extracellular domain; Coated on the ELISA plate
T1 sequence (P21860 20-643, change not shown): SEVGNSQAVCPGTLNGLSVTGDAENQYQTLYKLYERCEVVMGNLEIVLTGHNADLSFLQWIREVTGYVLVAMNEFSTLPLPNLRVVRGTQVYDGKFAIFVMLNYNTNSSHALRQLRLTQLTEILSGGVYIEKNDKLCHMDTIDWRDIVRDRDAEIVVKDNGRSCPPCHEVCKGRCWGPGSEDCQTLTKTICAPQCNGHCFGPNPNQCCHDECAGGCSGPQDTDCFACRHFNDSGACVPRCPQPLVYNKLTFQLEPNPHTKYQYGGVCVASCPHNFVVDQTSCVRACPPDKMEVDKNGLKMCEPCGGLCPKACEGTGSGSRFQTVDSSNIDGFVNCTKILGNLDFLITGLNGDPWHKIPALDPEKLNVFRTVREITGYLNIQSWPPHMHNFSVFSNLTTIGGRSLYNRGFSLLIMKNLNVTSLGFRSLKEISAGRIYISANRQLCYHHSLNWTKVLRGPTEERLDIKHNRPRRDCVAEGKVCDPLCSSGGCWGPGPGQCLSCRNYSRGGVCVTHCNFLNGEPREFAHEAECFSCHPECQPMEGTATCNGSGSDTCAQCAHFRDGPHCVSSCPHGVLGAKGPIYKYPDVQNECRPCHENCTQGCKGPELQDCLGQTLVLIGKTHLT
Protocol: (§1) Microtiter plates were coated with a) c-Met, IGF-1R, EGFR, HER2, and/or HER3 protein or b) EGFR, HER2, and/or HER3 (recombinant Fc chimeric conjugates of human c-Met, IGF-1R, EGFR, HER2, HER3 or IL12 Rβ1). After a blocking process, specific antibodies from B-cell supernatants bind to the targets and are then detected by a POD-labeled anti-rabbit IgG antibody. The IL12R binding was used as a counter-screen.
(§2) 12.5 μL 0.5 μg/mL protein in PBS was transferred to a microtiter plate incubated and washed 3× with Wash Buffer. 90 μL Block Buffer was added to each well, incubated and washed. 12.5 μL Standard Antibody (Anti-EGF-Receptor; HER2 Rabbit anti-Human Monoclonal (extracellular domain) (SP3) Antibody; HER3 (N-terminal) antibody; start concentration 2 μg/ml; IL-12Rbeta1 antibody start concentration 500 ng/ml) in 1:2 dilutions or sample diluted in ELISA buffer was added, incubated and washed. 12.5 μl 1:5000 POD-Antibody (Anti-rabbit IgG, peroxidase-linked species-specific Fab2 fragment (from donkey) (ECL); assay dilution: 1:5000) in Elisa Buffer was added, incubated and washed. 15 μl TMB was added and 15 μl HCl was added after sufficient development. Absorbance (Optical Density O.D.) was read at 450 nm/620 nm.

[2] = target: T2, recombinant Fc chimeric conjugate of human HER2 (human, UniProt P04626 23-652); experiment: ELISA, coated antigen
T2 construct: extracellular domain; Coated on the ELISA plate
Protocol: as §1, §2

Binder	binding result [1]	binding result [2]
B1	no binding (tested: OD 0.1 or lower)	–
B2	–	no binding (tested: OD 0.1 or lower)
B3	no binding (tested: OD 0.1 or lower)	–
B4	no binding (tested: OD 0.1 or lower)	–
B5	no binding (tested: OD 0.1 or lower)	–
B6	no binding (tested: OD 0.1 or lower)	–
B7	no binding (tested: OD 0.1 or lower)	–
B8	no binding (tested: OD 0.1 or lower)	–
B9	no binding (tested: OD 0.1 or lower)	–
B10	no binding (tested: OD 0.1 or lower)	–
B11	–	no binding (tested: OD 0.1 or lower)
B12	no binding (tested: OD 0.1 or lower)	–
B13	–	no binding (tested: OD 0.1 or lower)
B14	–	no binding (tested: OD 0.1 or lower)
B15	–	no binding (tested: OD 0.1 or lower)
B16	–	no binding (tested: OD 0.1 or lower)
B17	–	no binding (tested: OD 0.1 or lower)
B18	no binding (tested: OD 0.1 or lower)	–
B19	no binding (tested: OD 0.1 or lower)	–
B20	no binding (tested: OD 0.1 or lower)	–
B21	no binding (tested: OD 0.1 or lower)	–
